The supplement of paper PMC12042874
± gives the uncertainty stated by the source.

test: amyloid nucleation score (Sup35N fusion, yeast selection) (log enrichment); library NNK3; higher = more nucleation; inactive = no reads after selection
Outline: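 Random libraries were run with three technical output replicates. In each, psi-negative yeast expressing Sup35N fused to peptides of 20 random codons were induced 24 hours with 100 μM copper sulfate and grown 7 days at 30°C on medium lacking adenine and uracil, and input and output plasmid inserts were Illumina-sequenced. The nucleation score is the DiMSum log enrichment of output over input reads, centred on the mode score of non-aggregating sequences, and sequences under 100 input reads were excluded.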

| Substance | amyloid nucleation score |
| --- | --- |
| LWVYAPFDSK | inactive |
| LYAKF | inactive |
| LYCGDSI | inactive |
| LYEAVDRGLSRR | inactive |
| LYFFYMPQTWVVSRCCGYNP | 3.06 ± 0.079 |
| LYINVHLEEIIFSLALREK | 1.71 ± 0.057 |
| LYLFMAYGVLGVLRQ | 0.397 ± 0.42 |
| LYLIFFCLWSSQLDAQLFVL | -0.217 ± 0.93 |
| LYRAIIIRRWFGNMGDFHKP | inactive |
| LYTGYVLAIMYWAVLARENT | -1.45 ± 2.5 |
| LYVFCTSY | inactive |
| LYVLWRLGKQCHTFWFFSSI | 0.265 ± 0.44 |
| LYWATGLGVNFKFNLCLDDA | inactive |
| LYWEPKLTSDFKRLDLRLVP | inactive |
| LYYKSLGRCRNYLYCSH | 0.596 ± 0.12 |
| LYYMKVIGTFRISEAILLYL | inactive |
| MALHRFS | inactive |
| MALLLDILMNNNFISIKGFI | inactive |
| MASFSRHVCMYGTLNLSGNA | inactive |
| MCFEVLHACRYFVRHSSQRI | inactive |
| MCGDCICVVSVMLAHAPKCS | inactive |
| MCMLIYCYAQSLVMKMDSHY | inactive |
| MCNWMNNLADSGLSASSVQV | inactive |

| Substance | amyloid nucleation score |
| --- | --- |
| MCQKQHQYQVTAIRTYMIRF | inactive |
| MCQNANRYTGMSLVMFVGSV | 1.24 ± 0.12 |
| MCTNMSRNQFITDIVLCDRS | inactive |
| MCTTRGYMF | inactive |
| MCWLLLIRWDK | inactive |
| MDGGFECGNEGICWSTCVLG | inactive |
| MDRASVCLEGGMSMVWLRYV | inactive |
| MDSFRRDEYFKSLFVMLYLS | inactive |
| MEFYVYTMDKRCSRMFSWHS | inactive |
| MFEMS | inactive |
| MFLFFHVFKDFQIHRDLQDW | 0.08 ± 0.59 |
| MFLSWCKKVNLRMIILSSDT | inactive |
| MFNSFTNWLRQDQCRTIIGS | inactive |
| MFRWLAQWALLTTTSRPASQ | inactive |
| MFSSLV | inactive |
| MFVVYLGYRRAVIDNDALED | inactive |
| MFVWHSC | inactive |
| MGGELCY | inactive |
| MGGICRASRCCGCPTGRNCL | 0.665 ± 0.27 |
| MGHHRCYVRVSKKDYWF | inactive |
| MGLLLFLSANDV | inactive |
| MGMFTNPT | inactive |
| MGMLNGSSSMSDGYVYGGLW | inactive |

| Substance | amyloid nucleation score |
| --- | --- |
| MGPWCRKWIICLTRVSYRVG | inactive |
| MGVIMEGMRFFFVWMQM | inactive |
| MGVSADTYYNIRM | 0.161 ± 0.43 |
| MGVVRFTYCDIKV | inactive |
| MHHVLYERERSY | inactive |
| MIFLRIFYGLLGNSQFIIFL | 0.331 ± 0.56 |
| MIFRAQDSYGPLYT | inactive |
| MIFVGILVFSDLRASKVPWV | inactive |
| MIGHFTYVGLWGSLATYVQV | inactive |
| MIIPSTVMQSLSTCILERAS | inactive |
| MILKNWNVSISRGSRFNSYV | inactive |
| MILLFVVAFILLTEYICWAI | 0.601 ± 0.18 |
| MILLLSGGCVTESFWG | inactive |
| MILSNKVLIGCE | inactive |
| MINSHDL | inactive |
| MIRSVLLIQFNALEHSVRCR | inactive |
| MISWLNQKYHVLNQNFIYG | inactive |
| MITDSGIYFAFCWDKSTVSS | inactive |
| MIVGYACFAFGAWFFGFYCM | inactive |
| MIVSQVCTRSHVMGRSLGAE | inactive |
| MIYSHDHTYHSCLLDAVSCR | inactive |
| MKDASFQP | inactive |
| MKLEEELSYRFRRSWFYALW | inactive |

| Substance | amyloid nucleation score |
| --- | --- |
| MKNRYLNRCTLVANAFGLKE | inactive |
| MKPSKGVDL | inactive |
| MKRGDDLHTLFITSVPKSGY | inactive |
| MLCKYTCLICYGYRTKRSSE | 0.684 ± 0.17 |
| MLDAQSASWYYFRGSLFDVR | inactive |
| MLDISMEVSGCSILS | -0.261 ± 0.52 |
| MLGVMCLYQVVFIDHSYSYR | inactive |
| MLITYTLYCVICLGC | 1.46 ± 0.072 |
| MLLGRLSLEVKFEWIFPRIG | 0.687 ± 0.14 |
| MLMVDDYEYMRFQMAGMVYM | inactive |
| MLPVIHIGVVSPRTFEQSSC | inactive |
| MLSVPDVVRFWMFKFYKFSW | inactive |
| MLYRCLAKYRMWHYVDLSLL | inactive |
| MMSMNMNLSYCYGFMGSHYS | 1.47 ± 0.097 |
| MMTIRSSMLAKGLVNALATV | inactive |
| MNGMICISNCFKDGHVTLNK | 1.26 ± 0.16 |
| MPFPVGNFHQGDNMNVSQCG | 0.61 ± 0.12 |
| MPLTFTSRSSDVICLNVGSG | -0.232 ± 0.62 |
| MPSRHFLGY | inactive |
| MQPGYQCDNVVRSCHDAHGY | inactive |
| MRAGWLYFWASANGDNQWEA | inactive |
| MRARLANKQGMGPRTRVASV | inactive |
| MRCSDGPPKWNHD | -0.277 ± 0.88 |

| Substance | amyloid nucleation score |
| --- | --- |
| MRFDNVTMRVLLCFS | inactive |
| MRLMEQYFICCVM | 1.06 ± 0.17 |
| MRTRGQTFTWGHYGCLLIDE | inactive |
| MRVVECLMRSLCRLDVRVHC | inactive |
| MRVVEYMTSLLSLIFYMGQK | inactive |
| MRYFFLTRNLGLRAEPVC | inactive |
| MSFTMMCMSFCSSILRYNLS | inactive |
| MSIDPHILVLVGEWLVCLKL | inactive |
| MSIIKKIG | inactive |
| MSLRLVMWFSNLVSYTV | inactive |
| MSPLGTCYRILKLDYCKYAV | -0.328 ± 0.55 |
| MSRMMSLNMECTSGMPESQV | inactive |
| MSVRPL | inactive |
| MSVSSCLTPGDGNESHWNSR | inactive |
| MSYSFKAISAHNKQSVNNVW | inactive |
| MTILYYDS | inactive |
| MTLHAILFLTRSLDALYLLT | inactive |
| MTRVNFYFLFFELLLMAFGV | inactive |
| MTVHDIHYLS | inactive |
| MTYAVCGYSIFHKITRTRFG | inactive |
| MTYHDGTGLFGVVL | inactive |
| MVCNGFRDDRVMIVK | inactive |
| MVLGELCVPGIFALCRFECN | inactive |

| Substance | amyloid nucleation score |
| --- | --- |
| MVLYGAHECRDDKSVSLTRC | inactive |
| MVSSLRALCPQHFVCSVVCM | 0.885 ± 0.14 |
| MVYGVSAVEVKSSLVGWVVA | inactive |
| MWFTLKMYTMRCCFEVTLRK | inactive |
| MWSDLGV | -0.173 ± 0.87 |
| MWYLTDWIDCFCLSNMNICT | 1.81 ± 0.063 |
| MYFILASSISILFGIKVFPM | inactive |
| MYQDPCIHSVCCWIM | 1.28 ± 0.096 |
| MYQSLAYFASDLRIHWHMRK | 0.729 ± 0.14 |
| MYRCNVGLLGVFPRCNPYDA | inactive |
| MYVQVS | -0.795 ± 0.91 |
| MYWLHYKVHNYNSCVI | inactive |
| NACSARMGVVYNMLPSGESR | inactive |
| NADCAYCLLFNLRWSVCVRT | -0.067 ± 0.36 |
| NALCSHTILLYGEVMLKSWL | inactive |
| NALFHRI | inactive |
| NAMGTFSMGDI | inactive |
| NCELGYARPLGDAMLNRAWF | inactive |
| NCFEYLYPRVTDTELNRFFL | inactive |
| NCIAFGWLWSELRN | inactive |
| NCIIR | inactive |
| NCMEINVYFTFVEMQLAELD | 2.69 ± 0.055 |
| NCNIWIEVQFTASDVIISWV | 1.69 ± 0.066 |

| Substance | amyloid nucleation score |
| --- | --- |
| NCNPFCIRLWFPNEYICW | inactive |
| NCQSTTTQGILCISLSYMEI | inactive |
| NDFVRSADKDFGSDRFSNVV | inactive |
| NDKVYRVGRTNLYNV | inactive |
| NDSLTLIWNGGSGYDVIKFE | inactive |
| NDSSQLLITI | inactive |
| NEALSERQYRAMLTETLVAG | inactive |
| NEGWPLWQWSSAVKHTFSKR | 0.422 ± 0.31 |
| NENTNLIRLNGTDMRAYKLW | inactive |
| NESFGTARSAGDGMKNVPGP | inactive |
| NEVVQSLTRSIFRRYSKSAM | 0.129 ± 0.98 |
| NFCLVRGVNLANPFSNDCKS | inactive |
| NFFCASRVMGLLMIF | inactive |
| NFFESLMVMSDKASLSVMK | inactive |
| NFFSA | -0.51 ± 0.73 |
| NFFTL | inactive |
| NFFVKTNRHGNVTTFGGR | inactive |
| NFGQKQNIWAWTVYCPDPCE | inactive |
| NFIQVMAIIGLFAVHRGCVT | 0.758 ± 0.14 |
| NFLYWHRWVVWSSMSSYRKP | -0.348 ± 0.63 |
